Results reported in patent EP4644419A1 (Hangzhou Zhongmeihuadong Pharmaceutical Co., Ltd., dated 2025).

How the values were obtained:
[1] = target: T1, human CD112R on GS-J2C/CD112R effector cells (human, UniProt Q6DKI7 1-326); assay: cell-based or functional assay
T1 sequence (looked up): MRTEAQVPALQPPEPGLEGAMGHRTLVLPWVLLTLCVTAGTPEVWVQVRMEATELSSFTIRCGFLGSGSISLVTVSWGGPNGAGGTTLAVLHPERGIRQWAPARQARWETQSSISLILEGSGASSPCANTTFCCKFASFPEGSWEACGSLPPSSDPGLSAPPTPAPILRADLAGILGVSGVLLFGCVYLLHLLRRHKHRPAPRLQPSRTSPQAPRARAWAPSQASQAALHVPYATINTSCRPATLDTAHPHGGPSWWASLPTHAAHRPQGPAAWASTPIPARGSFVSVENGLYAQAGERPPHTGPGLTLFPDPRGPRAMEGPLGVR

[2] = target: T2, human CD112R on antigen-specific CD8+ T cells (human, UniProt Q6DKI7 1-326); assay: cell-based or functional assay
T2 sequence (looked up): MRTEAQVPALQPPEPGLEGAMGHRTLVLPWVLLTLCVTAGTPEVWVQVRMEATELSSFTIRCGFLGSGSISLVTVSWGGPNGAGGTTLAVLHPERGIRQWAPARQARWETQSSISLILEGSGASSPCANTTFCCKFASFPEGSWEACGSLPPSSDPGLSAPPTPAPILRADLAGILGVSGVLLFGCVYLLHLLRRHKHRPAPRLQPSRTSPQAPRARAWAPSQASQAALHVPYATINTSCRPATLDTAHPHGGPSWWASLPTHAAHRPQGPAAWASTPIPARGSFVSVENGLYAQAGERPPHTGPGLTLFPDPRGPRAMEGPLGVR

[3] = target: T3, human CD112R antigen protein huCD112R-His (Acro Biosysterm, PVG-H52H4) (human, UniProt Q6DKI7 41-171); assay: ELISA, huCD112R-His coated on plate
T3 construct: purchased; also called human antigen protein; not shown: His tag
T3 sequence (looked up): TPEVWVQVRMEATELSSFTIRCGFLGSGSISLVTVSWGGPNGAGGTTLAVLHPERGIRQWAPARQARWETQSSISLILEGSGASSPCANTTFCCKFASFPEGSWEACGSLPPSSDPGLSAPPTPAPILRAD

[4] = target: T4, monkey antigen protein (monkey CD112R, Uniprot ID: A0A2K5WVV8) (monkey, UniProt A0A2K5WVV8 41-171); assay: ELISA, monkey antigen protein (as Example 6.1)
T4 sequence: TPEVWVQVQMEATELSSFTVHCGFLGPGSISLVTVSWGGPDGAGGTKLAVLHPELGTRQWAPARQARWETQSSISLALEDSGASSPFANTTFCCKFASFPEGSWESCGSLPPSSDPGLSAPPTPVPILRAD

[5] = target: T3, human CD112R antigen protein …; assay: SPR (Biacore X100), antibody captured on Protein A chip, huCD112R-His as analyte, 1:1 Langmuir

B1: C1 (antibody, human IgG1, kappa, V domains shown)
VH: QVHLQQSGPELVKPGASLKISCKASGYTFTDYYLNWVKQRPGQGLEWIGWIFPGSESTFYNEKFKGKATLTVDKSSSTAYMLLNSLTSEDSAVYFCTRDGGLRGPFDYWGQGTTLTVSS
VL: DIQLTQSPSSLSASLGGKVTITCKASQDINKYIAWCQHKPGKGPRLLIHYTSTLHPGIPSRFSGSGSGRDYSFSISNLEPEDSATYYCLQYDYLLTFGGGTKLEIKR
EC50 (Blocking effects of the antibodies, reporter gene method) [1]: 0.045 µg/mL | IFN-γ(pg/ml) at 0.5µg/ml antibody [2]: 543 pg/mL | IFN-γ(pg/ml) at 5µg/ml antibody [2]: 641 pg/mL | IFN-γ(pg/ml) at 50µg/ml antibody [2]: 755 pg/mL | EC50 [3]: 0.075 nM | EC50 [4]: 0.116 nM | Kd [5]: 0.905 nM

B2: C13 (antibody, human IgG1, kappa, V domains shown)
VH: EVQLQQSGPELVKPGASVKISCKASGYTFTDYFMNWVKQSHGKSLEWIGDINPNNGSPNYNQKFKGRATLTVDKSSSTAYMELRSLTSEDSAVYYCASGYFDVWGTGTTVTVSS
VL: DIVMTQSPSSLSVSAGEKVTMSCKSSQSLLNSGTQKNYLAWYQQKPGQPPKLLIYGASTRESGVPDRFTGSGSGTDFTLTISSVQAEDLAVYYCQNDHSYPWTFGGGTKLEIKR
EC50 (Blocking effects of the antibodies, reporter gene method) [1]: 0.019 µg/mL | IFN-γ(pg/ml) at 0.5µg/ml antibody [2]: 624 pg/mL | IFN-γ(pg/ml) at 5µg/ml antibody [2]: 658 pg/mL | IFN-γ(pg/ml) at 50µg/ml antibody [2]: 767 pg/mL | EC50 [3]: 0.065 nM | EC50 [4]: 0.059 nM | Kd [5]: 0.0218 nM

B3: C4 (antibody, human IgG1, kappa, V domains shown)
VH: EVQLQQSGPELVKPGASVKISCKASGYTFTDYFMNWVKQSHGKSLEWIGDIIPNNDSPNYNQKFKGKATLTVDKSSNTAYMELRSLTSEDSAVYYCASGYFDVWGTGTTVTVSS
VL: DIVMTQSPSSLSVSAGEKVTMSCKSSQSLLNSGNQKNFLAWYQQKPGQPPKLLIYGTSTRESGVPDRFTGSGSGTDFTLTISSVQAEDLAVYYCQNDHSYPWTFGGGTKLEIKR
EC50 (Blocking effects of the antibodies, reporter gene method) [1]: 0.024 µg/mL | IFN-γ(pg/ml) at 0.5µg/ml antibody [2]: 663 pg/mL | IFN-γ(pg/ml) at 5µg/ml antibody [2]: 740 pg/mL | IFN-γ(pg/ml) at 50µg/ml antibody [2]: 875 pg/mL | EC50 [3]: 0.032 nM | EC50 [4]: 0.059 nM | Kd [5]: 0.0141 nM

B4: C11 (antibody, human IgG1, kappa, V domains shown)
VH: EVQLQQSGPELVKPGASVKISCKASGYTFTDYFMNWVRQSHGKSLEWIGDIHPNNGSPNYNQKFKGKATLTVGKSSSTAYMELRSLTSEDSAVYYCATGYFDVWGTGTTVTVSS
VL: DIVMTQSPSSLSVSAGEKVTMSCKSSQSLLNSGNQKNYLAWYQQKPGQPPKLLIYGASTRESGVPDRFTGSGSGTDFTLTISSVQAEDLAVYYCQNDHSYPWTFGGGTKLEIKR
EC50 (Blocking effects of the antibodies, reporter gene method) [1]: 0.021 µg/mL | IFN-γ(pg/ml) at 0.5µg/ml antibody [2]: 676 pg/mL | IFN-γ(pg/ml) at 5µg/ml antibody [2]: 747 pg/mL | IFN-γ(pg/ml) at 50µg/ml antibody [2]: 617 pg/mL | EC50 [3]: 0.056 nM | EC50 [4]: 0.079 nM | Kd [5]: 0.0622 nM

B5: C12 (antibody, human IgG1, kappa, V domains shown)
VH: EVQLVASGGGLVKPGGSLKLSCAASGFTFSDYYMYWVRQTPEKRLEWVATISDGGGYTYYPDSVKGRFTISRDNDRNSLYLQMSSLKSEDTAMYYCGREDLWGQGTSVTVSS
VL: DIQMTQSPSSLSASLGERVSLTCRASQDIGSSLNWLQQEPDGTVKRLIYATSRLDSGVPKRFSGSRSGSDYSLTISSLESEDFVDYYCLQYASFPYTFGGGTKLEIKR
EC50 (Blocking effects of the antibodies, reporter gene method) [1]: 0.024 µg/mL | IFN-γ(pg/ml) at 0.5µg/ml antibody [2]: 608 pg/mL | IFN-γ(pg/ml) at 5µg/ml antibody [2]: 678 pg/mL | IFN-γ(pg/ml) at 50µg/ml antibody [2]: 824 pg/mL | EC50 [3]: 0.155 nM | EC50 [4]: 0.768 nM | Kd [5]: 2.9 nM

B6: C8 (antibody, human IgG1, kappa, V domains shown)
VH: EVQLVASGGGLVKPGGSLKLSCAASGFTFSDYYMFWVRQTPEKRLEWVATISDGGGYIYYPDSVKGRFTISRDNDRNSLYLQMSSLKSEDTAIYYCGREDFWGQGTSVTVSS
VL: DIQMTQSPSSLSASLGERVSLTCRASQDIGRSLNWLQQEPDGSVRRLIYATSRLDSGVPKRFSGSRSGSDYSLTISSLESEDFVDYYCLQYASFPYTFGGGTKLEIKR
EC50 (Blocking effects of the antibodies, reporter gene method) [1]: 0.026 µg/mL | IFN-γ(pg/ml) at 0.5µg/ml antibody [2]: 722 pg/mL | IFN-γ(pg/ml) at 5µg/ml antibody [2]: 783 pg/mL | IFN-γ(pg/ml) at 50µg/ml antibody [2]: 819 pg/mL | EC50 [3]: 0.046 nM | EC50 [4]: 0.047 nM | Kd [5]: 0.397 nM

B7: C18 (antibody, human IgG1, kappa, V domains shown)
VH: EVQLVESGGGLVKPGGSLKLSCAASGFTFSDYYMYWVRQTPEKRLEWVATISDGGGFIYYPDSVKGRFTISRDNDRNSLYLLMSSLKSEDTAMYFCGREDLWGQGTSVTVSS
VL: DIQMTQSPSSLSASLGERVSLTCRASQDIGRSLNWLQQGPDGTVKRLIYATSRLDSGVPTRFSGSRSGSDYSLTISSLESEDFVDYYCLQYASFPYTFGGGTKLEIKR
EC50 (Blocking effects of the antibodies, reporter gene method) [1]: 0.034 µg/mL | IFN-γ(pg/ml) at 0.5µg/ml antibody [2]: 748 pg/mL | IFN-γ(pg/ml) at 5µg/ml antibody [2]: 802 pg/mL | EC50 [3]: 0.069 nM | EC50 [4]: 0.069 nM | Kd [5]: 0.206 nM
